This test relates to fBAT cells. Briefly: Differentiation of fBAT preadipocyte cells in HyStem beads, Illumina microarray gene expression. Format: cell-based, human. To be noted: 14 days HyStem beads, 50 ng/ml BMP4, FIG. 15 sample 2. How it is done:
Differentiation medium is high glucose DMEM (CellGro Cat. No. 15-013-CV) with Pyruvate, 1 mM (Gibco Cat. 11360), Pen:Strep 100U/ml:100 ug/ml (Gibco Cat. No. 504284), Glutamax 2 mM (Gibco Cat. No. 35050), Dexamethasone 0.1 uM (Sigma, St. Louis, Mo., Cat. No. D1756-100), L-Proline 0.35 mM (Sigma Cat. No. D49752), 2-phospho-L-Ascorbic Acid 0.17 mM (Sigma, Cat. No. 49792, Fluka), and ITS Premix (BD, Franklin Lakes, N.J., sterile Cat. No. 47743-628) with a final concentration 6.25 ug/ml insulin, 6.25 ug/ml transferrin, 6.25 ng/ml selenious acid, serum albumin 1.25 mg/ml, 5.35 ug/ml linoleic acid. In various differentiation conditions, the Differentiation medium is supplemented with various growth factors or other differentiation factors as described herein.
HyStem-C (BioTime, Inc. Alameda, Calif.) is a matrix composed of thiol-modified gelatin and thiolated hyaluronan crosslinked in vivo or in vitro with (polyethylene glycol diacrylate (PEGDA). We observed that clonal human embryonic progenitor cell lines such as those described in the present invention, could be efficiently differentiated in high-density cultures of said crosslinked collagen and hyaluronate in the following manner. HyStem-C® (BioTime, CA, USA) is reconstituted following the manufacturer's instructions. Briefly, the HyStem component (10 mg of thiol-modified hyaluronan) is dissolved in 1.0 ml of degassed deionized water for approximately 20 min to prepare a 1% w/v solution. […] At the desired time point, hydrogel constructs were either fixed and processed for immunohistochemical analysis or lysed using RLT (Qiagen, CA, USA) with 1% beta-mercaptoethanol for total RNA to analyze transcript expression using quantitative real-time PCR (qRT-PCR) and/or whole-genome microarray.
Total RNA was extracted directly from cells growing in 6-well plates or 10 cm tissue culture dishes using Qiagen RNeasy mini kits according to the manufacturer's instructions. […] Values of less than 120 relative fluorescence units (RFUs) were considered as nonspecific background signal. […]

B1: BMP4: Bone Morphogenetic Protein 4, TGF-beta superfamily member (protein, UniProt P12644 293-408, looked up)
Bone morphogenetic protein 4: SPKHHSQRARKKNKNCRRHSLYVDFSDVGWNDWIVAPPGYQAFYCHGDCPFPLADHLNSTNHAIVQTLVNSVNSSIPKACCVPTELSAISMLYLDEYDKVVLKNYQEMVVEGCGCR
On to B1, for which the ADIPOQ expression result is reported as “markedly up-regulating”, the C19ORF80 expression result is recorded as “markedly up-regulating” and the UCP1 expression entry is given as “low or undetectable level”.

Source of the values: patent publication US20230093399A1, “METHODS FOR GENERATING PLURIPOTENT STEM CELL-DERIVED BROWN FAT CELLS” (AgeX Therapeutics, Inc., priority 2013, published 2023).
